The target of one assay is T1, Full-length Snu66 (S. cerevisiae, UniProt Q12420 1-587).
T1 sequence: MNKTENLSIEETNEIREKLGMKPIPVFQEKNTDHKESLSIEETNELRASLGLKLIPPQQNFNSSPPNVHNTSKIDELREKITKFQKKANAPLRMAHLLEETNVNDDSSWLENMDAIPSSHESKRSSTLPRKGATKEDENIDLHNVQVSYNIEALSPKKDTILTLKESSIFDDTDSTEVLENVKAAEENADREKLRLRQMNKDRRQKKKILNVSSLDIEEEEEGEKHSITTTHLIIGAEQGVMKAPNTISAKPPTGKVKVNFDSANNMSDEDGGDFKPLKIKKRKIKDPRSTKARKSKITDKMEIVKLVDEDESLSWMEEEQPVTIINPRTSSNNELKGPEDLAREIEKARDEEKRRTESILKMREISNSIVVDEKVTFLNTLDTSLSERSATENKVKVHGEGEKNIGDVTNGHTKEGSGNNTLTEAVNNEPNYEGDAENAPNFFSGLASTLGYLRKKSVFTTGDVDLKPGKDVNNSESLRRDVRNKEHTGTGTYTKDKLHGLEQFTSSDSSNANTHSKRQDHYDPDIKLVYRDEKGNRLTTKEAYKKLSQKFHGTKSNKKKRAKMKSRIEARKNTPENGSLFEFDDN
As to the kind of experiment: pull-down.

Another assay concerns the target ubiquitin (UniProt P0CG48 1-76). As to the kind of experiment: ITC. Background: In ITC the heat of successive injections is recorded.

“And” between values parts separate entries of the source, which are not always exact repeats. Equal values may be shown once.

Here are results for two molecules from publication PMC3988567 (RNA, 2014).

B1: GST-Hub1 (natural protein)
chain: MIEVVVNDRLGKKVRVKCLAEDSVGDFKKVLSLQIGTQPNKIVLQKGGSVLKDHISLEDYEVHDQTNLELYYL
With B1, the binding result with Full-length Snu66 is “binds”.

B2: ZnF-UBP domain from USP5 (domain or fragment)
chain: KQEVQAWDGEVRQVSKHAFSLKQLDNPARIPPCGWKCSKCDMRENLWLNLTDGSILCGRRYFDGSGGNNHAVEHYRETGYPLAVKLGTITPDGADVYSYDEDDMVLDPSLAEHLSHFGIDMLKMQKTDK
As usually defined, the Kd is the concentration at which binding is half-saturated. A high value points to weaker binding. Take B2: the Kd with ubiquitin was 2400 nM and 2300 nM.
